Source: article PMC4369429

Molecular target: Steroid receptor coactivator 3 (SRC-3), recombinant, wild type (UniProt Q9Y6Q9)
Experiment: cryo-EM structure

Chain of UniProt Q9Y6Q9 (Q9Y6Q9 whole entry): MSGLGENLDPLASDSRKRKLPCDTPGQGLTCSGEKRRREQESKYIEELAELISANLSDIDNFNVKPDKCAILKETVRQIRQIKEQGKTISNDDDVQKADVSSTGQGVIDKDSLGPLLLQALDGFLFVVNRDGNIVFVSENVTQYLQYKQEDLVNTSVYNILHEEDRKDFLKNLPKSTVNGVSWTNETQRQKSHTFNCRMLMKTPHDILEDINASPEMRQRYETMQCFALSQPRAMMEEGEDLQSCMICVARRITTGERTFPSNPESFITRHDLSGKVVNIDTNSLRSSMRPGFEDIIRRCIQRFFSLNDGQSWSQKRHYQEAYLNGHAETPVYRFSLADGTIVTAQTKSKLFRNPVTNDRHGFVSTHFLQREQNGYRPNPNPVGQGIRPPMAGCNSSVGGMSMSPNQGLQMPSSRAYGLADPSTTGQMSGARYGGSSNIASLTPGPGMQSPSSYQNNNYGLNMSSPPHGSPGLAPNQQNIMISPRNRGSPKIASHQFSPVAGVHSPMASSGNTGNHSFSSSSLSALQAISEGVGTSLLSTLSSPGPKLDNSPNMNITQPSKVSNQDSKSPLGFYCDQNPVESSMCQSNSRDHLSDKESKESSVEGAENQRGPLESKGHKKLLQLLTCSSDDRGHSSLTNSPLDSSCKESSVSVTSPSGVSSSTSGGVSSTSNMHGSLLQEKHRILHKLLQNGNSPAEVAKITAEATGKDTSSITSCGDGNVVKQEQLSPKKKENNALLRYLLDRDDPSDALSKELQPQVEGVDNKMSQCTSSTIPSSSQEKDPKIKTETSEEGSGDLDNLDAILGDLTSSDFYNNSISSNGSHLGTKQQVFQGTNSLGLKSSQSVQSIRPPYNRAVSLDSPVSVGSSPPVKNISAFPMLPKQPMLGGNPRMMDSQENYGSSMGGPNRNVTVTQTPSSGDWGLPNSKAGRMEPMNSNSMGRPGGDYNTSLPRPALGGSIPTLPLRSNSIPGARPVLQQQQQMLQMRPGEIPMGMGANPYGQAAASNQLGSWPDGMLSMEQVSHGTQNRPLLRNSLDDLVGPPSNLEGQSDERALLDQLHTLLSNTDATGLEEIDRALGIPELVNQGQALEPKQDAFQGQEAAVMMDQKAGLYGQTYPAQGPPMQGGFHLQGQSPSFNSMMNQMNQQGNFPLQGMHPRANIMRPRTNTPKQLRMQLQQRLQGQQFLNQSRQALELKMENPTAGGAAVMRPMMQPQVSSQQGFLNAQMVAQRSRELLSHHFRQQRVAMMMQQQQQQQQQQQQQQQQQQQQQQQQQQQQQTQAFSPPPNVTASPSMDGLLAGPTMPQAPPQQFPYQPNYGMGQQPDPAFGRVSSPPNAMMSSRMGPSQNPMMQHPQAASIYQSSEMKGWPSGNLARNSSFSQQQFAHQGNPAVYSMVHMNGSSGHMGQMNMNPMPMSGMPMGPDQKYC

p300, recombinant, Q09472 1-2414
stoichiometry N (p300 molecule per two SRC-3): 1
